According to patent US20260183429A1 (TRUSTEES OF COLUMBIA UNIVERSITY IN THE CITY OF NEW YORK, published 2026):

Target: T1, endogenous MFN2 in WT mouse embryonic fibroblasts (MEFs) (mouse, UniProt Q80U63 1-757)
T1 construct: Detected in situ by proximity ligation assay; also called mitofusin-2
T1 sequence (looked up): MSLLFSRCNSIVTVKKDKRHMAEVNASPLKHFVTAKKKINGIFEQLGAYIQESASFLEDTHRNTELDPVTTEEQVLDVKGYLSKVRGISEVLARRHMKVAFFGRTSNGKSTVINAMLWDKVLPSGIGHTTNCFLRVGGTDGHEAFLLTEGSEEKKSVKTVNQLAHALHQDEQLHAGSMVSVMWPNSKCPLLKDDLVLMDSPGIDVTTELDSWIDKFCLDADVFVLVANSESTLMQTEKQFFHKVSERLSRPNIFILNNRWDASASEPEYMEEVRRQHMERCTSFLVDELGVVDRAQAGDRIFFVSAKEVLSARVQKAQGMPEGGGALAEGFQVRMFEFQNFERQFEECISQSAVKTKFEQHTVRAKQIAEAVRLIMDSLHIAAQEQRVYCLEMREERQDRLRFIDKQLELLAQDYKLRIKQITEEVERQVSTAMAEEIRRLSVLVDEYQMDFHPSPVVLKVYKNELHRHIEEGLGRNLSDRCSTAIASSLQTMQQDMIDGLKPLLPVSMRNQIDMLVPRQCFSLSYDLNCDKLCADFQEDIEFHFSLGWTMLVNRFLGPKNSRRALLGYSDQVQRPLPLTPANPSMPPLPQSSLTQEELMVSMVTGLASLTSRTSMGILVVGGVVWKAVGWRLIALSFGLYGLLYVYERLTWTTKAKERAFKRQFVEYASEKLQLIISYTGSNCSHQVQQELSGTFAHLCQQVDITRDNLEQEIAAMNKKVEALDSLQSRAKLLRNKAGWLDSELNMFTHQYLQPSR
Test: proximity ligation assay of MFN2 and ATAT1 in WT MEFs

B1: endogenous ATAT1 in WT mouse embryonic fibroblasts (MEFs) (enzyme, UniProt Q8K341 1-421, looked up)
chain: MEFPFDVDALFPERITVLDQHLRPPARRPGTTTPARVDLQQQIMTIVDELGKASAKAQHLPAPITSALRMQSNRHVIYILKDTSARPAGKGAIIGFLKVGYKKLFVLDDREAHNEVEPLCILDFYIHESVQRHGHGRELFQHMLQKERVEPHQLAIDRPSPKLLKFLNKHYNLETTVPQVNNFVIFEGFFAHQHRPPTSSLRATRHSRAAVADPIPAAPARKLPPKRAEGDIKPYSSSDREFLKVAVEPPWPLNRAPRRATPPAHPPPRSSSLGNSPDRGPLRPFVPEQELLRSLRLCPPHPTARLLLATDPGGSPAQRRRTRGTPWGLVAQSCHYSRHGGFNTSFLGTGNQERKQGEQEAEDRSASEDRVLLLDGSGEEPTQTGAPRAQAPPPQSWTVGGDIMNARVIRNLQERRSTRPW
notes: Detected in situ by proximity ligation assay
  binding result: binds
